Experimental data as given in patent US12384811B2, “Sialidase-resistant saccharide and method of making and using the same” (Academia Sinica, priority 2019, dated 2025).

How the values were obtained:
FcγRIIIa = target: T1, FcγRIIIa (Homo sapiens, UniProt P08637); experiment: Surface plasmon resonance (SPR) analysis of binding avidity of glycoengineered Rituximab IgG1; settings: for improvement in binding avidity to FcγRIIIa compared to the commercial sample of rituximab / Rmax / Kd / ka / kd: SPR; for Rmax / Kd / ka / kd: BIACORE T200, 25° C.; for Kd / ka / kd: single cycle kinetic, 1:1 Langmuir model; for Fold: binding avidity relative to commercial Rituximab
T1 construct: made in house; host or cells: HEK-293
Protocol: All the SPR experiments were performed with the single cycle kinetic method by BIACORE T200 at 25° C. using HBS-EP (10 mM HEPES pH7.4, 0.15M NaCl, 3mMEDTA, 0.005% surfactant P20) as running buffer. FcγRIIIa was transfected into HEK-293 cells to express the complex-type glycosylated recombinant protein as analyte. For the analysis of Rituximabs binding to FcγRIIIa receptor, antihuman Fab antibodies in human Fab capture kit (GE Healthcare) were immobilized onto both the reference and active channels of CM5 sensor chip, and then Rituximabs were captured on the active channel for interacting with the serial dilutions of FcγRIIIa analyte (2.5, 5, 10, 20, 40 nM for 2,6-FluoSCT and 2,6-SCT; 8, 24, 72, 216, 648 nM for the commercial Rituximabs) at 30 μl/min for association of 240 seconds followed by dissociation time of 420 seconds. Rituximab data were processed with double referencing for background subtraction. Data of Rituximabs was fitted to 1:1 Langmuir binding model in BiaEvaluation software (GE Healthcare) to obtain the kinetic/affinity constants (Table 4). Analyzed antibodies were captured by the Human Fab capture kit and detected with the single cycle kinetic method.

[1] = target: T2, sialidase from Vibrio cholerae (Vibrio cholerae serotype O1, UniProt P0C6E9); format: biochemical; settings: pH 5.5
T2 construct: purchased Sigma Aldrich 11080725001

[2] = target: T2, sialidase from Vibrio cholerae; format: biochemical
[3] = system: sialidase from Clostridium perfringens; format: biochemical; settings: C. perfringens sialidase, substrate Neu5Ac-α2,6-GalβpNP 0.6 mM, inhibitor 0-20 mM (FIG. 1B)
[4] = system: sialidase from Clostridium perfringens; format: biochemical; settings: C. perfringens sialidase, 37° C., pH 5.0, substrate 0-20 mM, β-galactosidase, A405 nm (FIG. 1A)

T1 sequence (P08637 17-254): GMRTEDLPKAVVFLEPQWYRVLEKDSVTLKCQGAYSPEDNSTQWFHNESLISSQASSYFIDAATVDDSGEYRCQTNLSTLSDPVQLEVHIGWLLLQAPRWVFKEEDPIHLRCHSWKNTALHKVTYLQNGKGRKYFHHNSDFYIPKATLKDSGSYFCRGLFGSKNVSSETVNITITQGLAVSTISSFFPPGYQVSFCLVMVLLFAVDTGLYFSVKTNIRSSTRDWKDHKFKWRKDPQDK
T2 sequence (P0C6E9 25-781): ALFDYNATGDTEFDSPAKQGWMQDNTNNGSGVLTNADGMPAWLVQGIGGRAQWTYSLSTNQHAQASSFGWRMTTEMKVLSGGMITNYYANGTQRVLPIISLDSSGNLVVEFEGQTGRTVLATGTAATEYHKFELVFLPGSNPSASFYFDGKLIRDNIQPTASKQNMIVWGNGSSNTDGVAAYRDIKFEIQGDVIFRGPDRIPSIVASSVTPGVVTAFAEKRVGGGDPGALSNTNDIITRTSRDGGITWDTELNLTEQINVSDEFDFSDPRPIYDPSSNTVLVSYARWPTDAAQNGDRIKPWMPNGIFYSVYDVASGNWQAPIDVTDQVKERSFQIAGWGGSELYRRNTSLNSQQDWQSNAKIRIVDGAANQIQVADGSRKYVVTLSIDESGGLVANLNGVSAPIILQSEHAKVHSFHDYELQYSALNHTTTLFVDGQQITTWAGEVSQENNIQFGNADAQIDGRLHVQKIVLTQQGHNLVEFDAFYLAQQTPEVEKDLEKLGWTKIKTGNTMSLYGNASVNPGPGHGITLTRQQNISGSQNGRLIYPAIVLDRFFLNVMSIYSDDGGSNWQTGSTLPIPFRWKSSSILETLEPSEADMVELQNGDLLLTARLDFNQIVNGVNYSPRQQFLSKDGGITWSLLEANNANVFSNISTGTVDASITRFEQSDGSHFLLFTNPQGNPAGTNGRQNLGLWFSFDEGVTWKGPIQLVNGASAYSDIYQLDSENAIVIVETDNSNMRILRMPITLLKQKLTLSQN

“2,6-F^axSCT: homogeneous rituximab IgG1 glycoform without core fucose bearing the 3F^ax-Neu5Ac-terminated α2,6-sialylated biantennary N-glycan” was tested, and the “improvement in binding avidity to FcγRIIIa compared to the commercial sample of rituximab” value (FcγRIIIa) was 37.4 fold, the Rmax (FcγRIIIa) was 71.28 RU and the Kd (FcγRIIIa) was 8.18 nM. The ka (FcγRIIIa) was 244000 M⁻¹ s⁻¹, the kd (FcγRIIIa) was 0.001996 s⁻¹ and the Fold (FcγRIIIa) was 37.4-fold.
In the case of “2,6-SCT: parent nonfluorinated homogeneous rituximab glycoform (G2S2), α2,6-sialylated biantennary N-glycan without core fucose”, the “improvement in binding avidity to FcγRIIIa compared to the commercial sample of rituximab” value (FcγRIIIa) is reported as 39.9 fold, the Rmax (FcγRIIIa) is reported as 60.64 RU and the Kd (FcγRIIIa) is reported as 7.67 nM. The ka (FcγRIIIa) was 268000 M⁻¹ s⁻¹, the kd (FcγRIIIa) was 0.002059 s⁻¹ and the Fold (FcγRIIIa) was 39.9-fold.
For `CC(=O)N[C@H]1[C@H]([C@H](O)[C@H](O)CO)OC(OC[C@H]2O[C@@H](Oc3ccc([N+](=O)[O-])cc3)[C@H](O)[C@@H](O)[C@H]2O)(C(=O)O)C[C@@H]1O` (stereo partly drawn) [Compound 1, p-Nitrophenyl [5-acetamido-5-deoxy-D-glycero-α-D-galacto-non-2-ulopyranosylonate]-(2→6)-β-D-galactopyranoside], the “hydrolytic activity of the sialidase toward the substrate” value (shortened to “hydrolytic activity”) [1] was “expected hydrolytic activity”.
For `CC(=O)N[C@H]1[C@H]([C@H](O)[C@H](O)CO)OC(C(=O)O)=C[C@@H]1O` [DANA, 2-deoxy-2,3-didehydro-N-acetylneuraminic acid], the “inhibition of the hydrolysis of 1” value [2] was “inhibit the hydrolysis of 1” and the “inhibition of the hydrolysis of 1” value [3] was “inhibit the hydrolysis of 1”.
For “Rituximab: commercial sample of rituximab (Rituxan, Roche; major glycoforms: G1F1, G0F1, G2F1)”, the Rmax (FcγRIIIa) was 32.33 RU, the Kd (FcγRIIIa) was 306 nM and the ka (FcγRIIIa) was 231000 M⁻¹ s⁻¹. The kd (FcγRIIIa) was 0.07054 s⁻¹ and the Fold (FcγRIIIa) was 1-fold.
For “p-Nitrophenyl [methyl 5-acetamido-3,5-dideoxy-3-fluoro-D-erythro-α-L-manno-non-2-ulopyranosonate]-(2→6)-β-D-galactopyranoside [Compound 2]”, the “hydrolytic activity” value [1] was “inactive”, the “hydrolytic activity” value [4] was “inactive” and the “inhibition of the hydrolysis of 1” value [2] was “did not significantly inhibit”. For the same molecule, the “inhibition of the hydrolysis of 1” value [3] was “did not significantly inhibit”.
